From publication PMC4147282, “Aromatic Amino Acid Mutagenesis at the Substrate Binding Pocket of Yarrowia lipolytica Lipase Lip2 Affects Its Activity and Thermostability” (The Scientific World Journal, 2014)

Substrate: CCCCCCCCCCCCCCCC(=O)Oc1ccc([N+](=O)[O-])cc1
Experiment: purified protein
Assay type: biochemical, Yarrowia lipolytica
Settings: 50 mmol PBS, pH 8.0, 40°C, substrate 0.2–1 mmol

B1: YLLip2 (lipase2 from Yarrowia lipolytica) (Yarrowia lipolytica) (protein)
chain: VYTSTETSHIDQESYNFFEKYARLANIGYCVGPGTKIFKPFNCGLQCAHFPNVELIEEFHDPRLIFDVSGYLAVDHASKQIYLVIRGTHSLEDVITDIRIMQAPLTNFDLAANISSTATCDDCLVHNGFIQSYNNTYNQIGPKLDSVIEQYPDYQIAVTGHSLGGAAALLFGINLKVNGHDPLVVTLGQPIVGNAGFANWVDKLFFGQENPDVSKVSKDRKLYRITHRGDIVPQVPFWDGYQHCSGEVFIDWPLIHPPLSNVVMCQGQSNKQCSAGNTLLQQVNVIGNHLQYFVTEGVCGI
notes: mature YLLip2, own prepro replaced by XPR2pre secretion signal, N-terminal 6xHis tag kept (HHHHHH-VYTST...); secreted from Y. lipolytica JMY1212 (plasmid pYL-H6-mYLLip2); IMAC purified; approx. 38 kDa on SDS-PAGE
- kcat: 157 ± 1 s⁻¹
